Experiment [1] concerns the target antithrombin III (AT-III), plasma purified human, in complex with unfractionated heparin (UFH) (human) (UniProt P01008). The experiment in a line: inhibition of FIXa by AT-III/UFH, pseudo-first-order, residual activity on Mesyl-D-CHG-Gly-Arg-AMC.
Experiment [2] deals with plasma purified human AT-III (antithrombin III) in complex with unfractionated heparin (human) (UniProt P01008). The experiment in a line: residual FIXa activity on Mesyl-D-CHG-Gly-Arg-AMC after timed incubation with AT-III/UFH (0-500 nM AT-III, 1 uM UFH); kapp from K0.5.

This note sets out measurements from patent US20210238260A1.

As to “FIXa-K228N/I251S/R318Y/R338E/R403E/E410N (from UniProt P00740 47-191; P00740 227-461) (enzyme)”, the kapp (second-order rate constant for inhibition) in experiment [1] came to 900 M⁻¹ s⁻¹.

Substance “FIXa-K228N/K247N/N249S/R318Y/R338E/T343R/R403E/E410N (from UniProt P00740 47-191; P00740 227-461) (enzyme)” came in with a kapp (second-order rate constant for inhibition) in experiment [1] of 5300 M⁻¹ s⁻¹.

As for “FIXa-K247N/N249S/N260S/R318Y/R338E/R403E/E410N (from UniProt P00740 47-191; P00740 227-461) (enzyme)”, the kapp (apparent second-order rate constant for inhibition) in experiment [2] came out at 1300 M⁻¹ s⁻¹.

As to “FIXa-K247N/N249S/R318Y/R338E/R403E (from UniProt P00740 47-191; P00740 227-461) (enzyme)”, in experiment [2], the kapp (apparent second-order rate constant for inhibition) worked out at 310 M⁻¹ s⁻¹.

In the case of “FIXa-K247N/N249S/R318Y/R338E/T343R/R403E (from UniProt P00740 47-191; P00740 227-461) (enzyme)”, in experiment [1], the kapp (second-order rate constant for inhibition) came to 1700 M⁻¹ s⁻¹.

“FIXa-K247N/N249S/R318Y/R338E/T343R/R403E/E410N (from UniProt P00740 47-191; P00740 227-461) (enzyme)”: in experiment [1], the kapp (second-order rate constant for inhibition) is 9600 M⁻¹ s⁻¹.

Turning to “FIXa-K247N/N249S/R318Y/R403E/E410N (from UniProt P00740 47-191; P00740 227-461) (enzyme)”, the kapp (apparent second-order rate constant for inhibition) in experiment [2] is 2700 M⁻¹ s⁻¹.

As for “FIXa-K247N/N249S/R338E/R403E/E410N (from UniProt P00740 47-191; P00740 227-461) (enzyme)”, the kapp (apparent second-order rate constant for inhibition) in experiment [2] came out at 21000 M⁻¹ s⁻¹.

As to “FIXa-K247N/N249S/R338E/T343R/R403E/E410N (from UniProt P00740 47-191; P00740 227-461) (enzyme)”, the kapp (second-order rate constant for inhibition) in experiment [1] was 86000 M⁻¹ s⁻¹.

In the case of “FIXa-N260S/R318Y/R338E/R403E/E410N (from UniProt P00740 47-191; P00740 227-461) (enzyme)”, the kapp (apparent second-order rate constant for inhibition) in experiment [2] was found to be 4400 M⁻¹ s⁻¹.

In experiment [1], “FIXa-N260S/R318Y/R338E/T343R/R403E/E410N (from UniProt P00740 47-191; P00740 227-461) (enzyme)” registered a kapp (second-order rate constant for inhibition) of 2600 M⁻¹ s⁻¹.

On to “FIXa-R318Y/R338E/E410S (from UniProt P00740 47-191; P00740 227-461) (enzyme)”, for which, in experiment [2], the kapp (apparent second-order rate constant for inhibition) worked out at 720000 M⁻¹ s⁻¹.

With “FIXa-R318Y/R338E/N346D/R403E/E410N (from UniProt P00740 47-191; P00740 227-461) (enzyme)”, the kapp (apparent second-order rate constant for inhibition) in experiment [2] is 1100 M⁻¹ s⁻¹.

As for “FIXa-R318Y/R338E/N346Y/R403E/E410N (from UniProt P00740 47-191; P00740 227-461) (enzyme)”, the kapp (apparent second-order rate constant for inhibition) in experiment [2] was determined as 2800 M⁻¹ s⁻¹.

In the case of “FIXa-R318Y/R338E/R403E/E410N/T412A (from UniProt P00740 47-191; P00740 227-461) (enzyme)”, the kapp (apparent second-order rate constant for inhibition) in experiment [2] was found to be 3800 M⁻¹ s⁻¹.

On to “FIXa-R318Y/R338E/R403E/E410N/T412V (from UniProt P00740 47-191; P00740 227-461) (enzyme)”, for which the kapp (apparent second-order rate constant for inhibition) in experiment [2] is 2900 M⁻¹ s⁻¹.

As for “FIXa-R318Y/R338E/R403E/T412A (from UniProt P00740 47-191; P00740 227-461) (enzyme)”, in experiment [2], the kapp (apparent second-order rate constant for inhibition) turned out to be 1600 M⁻¹ s⁻¹.

Regarding “FIXa-R318Y/R338E/T343R/N346D/R403E/E410N (from UniProt P00740 47-191; P00740 227-461) (enzyme)”, the kapp (apparent second-order rate constant for inhibition) in experiment [2] came to 5100 M⁻¹ s⁻¹.

As to “FIXa-R318Y/R338E/T343R/N346Y/R403E/E410N (from UniProt P00740 47-191; P00740 227-461) (enzyme)”, the kapp (apparent second-order rate constant for inhibition) in experiment [2] was determined as 11000 M⁻¹ s⁻¹.

Consider “FIXa-R318Y/R338E/T343R/R403E (from UniProt P00740 47-191; P00740 227-461) (enzyme)”, for which, in experiment [1], the kapp (second-order rate constant for inhibition) is 5800 M⁻¹ s⁻¹.

In the case of “FIXa-R318Y/R338E/T343R/R403E/E410N (from UniProt P00740 47-191; P00740 227-461) (enzyme)”, in experiment [2], the kapp (apparent second-order rate constant for inhibition) is 32000 M⁻¹ s⁻¹.

Take “FIXa-R318Y/R338E/T343R/R403E/E410S (from UniProt P00740 47-191; P00740 227-461) (enzyme)”: the kapp (second-order rate constant for inhibition) in experiment [1] turned out to be 9900 M⁻¹ s⁻¹.

With “FIXa-R318Y/R338E/T412A (from UniProt P00740 47-191; P00740 227-461) (enzyme)”, the kapp (apparent second-order rate constant for inhibition) in experiment [2] worked out at 350000 M⁻¹ s⁻¹.

On to “FIXa-R318Y/R338E/Y345A/R403E/E410N (from UniProt P00740 47-191; P00740 227-461) (enzyme)”, for which the kapp (apparent second-order rate constant for inhibition) in experiment [2] turned out to be 7900 M⁻¹ s⁻¹.

In experiment [1], “FIXa-R318Y/T343R/R403E/E410N (from UniProt P00740 47-191; P00740 227-461) (enzyme)” yielded a kapp (second-order rate constant for inhibition) of 93000 M⁻¹ s⁻¹.

In the case of “FIXa-R338E/T343R/R403E (from UniProt P00740 47-191; P00740 227-461) (enzyme)”, the kapp (second-order rate constant for inhibition) in experiment [1] came out at 190000 M⁻¹ s⁻¹.

As for “FIXa-T343R/N346D (from UniProt P00740 47-191; P00740 227-461) (enzyme)”, in experiment [2], the kapp (apparent second-order rate constant for inhibition) is 1.3e+06 M⁻¹ s⁻¹.

As to “FIXa-T343R/N346Y (from UniProt P00740 47-191; P00740 227-461) (enzyme)”, the kapp (apparent second-order rate constant for inhibition) in experiment [2] worked out at 4.2e+06 M⁻¹ s⁻¹.

As for “FIXa-Y155F/I251S/R338E/T343R/R403E (from UniProt P00740 47-191; P00740 227-461) (enzyme)”, the kapp (second-order rate constant for inhibition) in experiment [1] was found to be 160000 M⁻¹ s⁻¹.

“FIXa-Y155F/K228N/I251S/R318Y/R338E/R403E/E410N (from UniProt P00740 47-191; P00740 227-461) (enzyme)”: the kapp (second-order rate constant for inhibition) in experiment [1] stood at 1300 M⁻¹ s⁻¹.

With “FIXa-Y155F/K228N/K247N/N249S/R318Y/R338E/R403E/E410N (from UniProt P00740 47-191; P00740 227-461) (enzyme)”, the kapp (apparent second-order rate constant for inhibition) in experiment [2] came to 1100 M⁻¹ s⁻¹.

As for “FIXa-Y155F/K228N/K247N/N249S/R318Y/R338E/T343R/R403E/E410N (from UniProt P00740 47-191; P00740 227-461) (enzyme)”, in experiment [1], the kapp (second-order rate constant for inhibition) stood at 2200 M⁻¹ s⁻¹.

With “FIXa-Y155F/K247N/N249S/N260S/R318Y/R338E/R403E/E410N (from UniProt P00740 47-191; P00740 227-461) (enzyme)”, the kapp (apparent second-order rate constant for inhibition) in experiment [2] stood at 430 M⁻¹ s⁻¹.

Substance “FIXa-Y155F/K247N/N249S/R318Y/E410N (from UniProt P00740 47-191; P00740 227-461) (enzyme)” gave a kapp (second-order rate constant for inhibition) in experiment [1] of 130000 M⁻¹ s⁻¹.

For the substance “FIXa-Y155F/K247N/N249S/R318Y/R338E (from UniProt P00740 47-191; P00740 227-461) (enzyme)”, in experiment [1], the kapp (second-order rate constant for inhibition) is 27000 M⁻¹ s⁻¹.

As to “FIXa-Y155F/K247N/N249S/R318Y/R338E/R403E (from UniProt P00740 47-191; P00740 227-461) (enzyme)”, the kapp (apparent second-order rate constant for inhibition) in experiment [2] came out at 810 M⁻¹ s⁻¹.

On to “FIXa-Y155F/K247N/N249S/R318Y/R338E/T343R/E410N (from UniProt P00740 47-191; P00740 227-461) (enzyme)”, for which the kapp (second-order rate constant for inhibition) in experiment [1] turned out to be 220000 M⁻¹ s⁻¹.

Take “FIXa-Y155F/K247N/N249S/R318Y/R338E/T343R/R403E (from UniProt P00740 47-191; P00740 227-461) (enzyme)”: in experiment [1], the kapp (second-order rate constant for inhibition) was 2300 M⁻¹ s⁻¹.

“FIXa-Y155F/K247N/N249S/R318Y/R338E/T343R/R403E/E410N (from UniProt P00740 47-191; P00740 227-461) (enzyme)” displayed a kapp (second-order rate constant for inhibition) in experiment [1] of 8700 M⁻¹ s⁻¹.

Substance “FIXa-Y155F/K247N/N249S/R318Y/R403E (from UniProt P00740 47-191; P00740 227-461) (enzyme)” yielded a kapp (second-order rate constant for inhibition) in experiment [1] of 2100 M⁻¹ s⁻¹.

As to “FIXa-Y155F/K247N/N249S/R318Y/R403E/E410N (from UniProt P00740 47-191; P00740 227-461) (enzyme)”, the kapp (apparent second-order rate constant for inhibition) in experiment [2] was found to be 7300 M⁻¹ s⁻¹.

The substance “FIXa-Y155F/K247N/N249S/R338E/R403E (from UniProt P00740 47-191; P00740 227-461) (enzyme)” gave a kapp (second-order rate constant for inhibition) in experiment [1] of 13000 M⁻¹ s⁻¹.

With “FIXa-Y155F/K247N/N249S/R338E/R403E/E410N (from UniProt P00740 47-191; P00740 227-461) (enzyme)”, the kapp (apparent second-order rate constant for inhibition) in experiment [2] is 42000 M⁻¹ s⁻¹.

“FIXa-Y155F/K247N/N249S/R338E/T343R (from UniProt P00740 47-191; P00740 227-461) (enzyme)” returned a kapp (second-order rate constant for inhibition) in experiment [1] of 1.2e+07 M⁻¹ s⁻¹.

For the substance “FIXa-Y155F/K247N/N249S/R338E/T343R/R403E/E410N (from UniProt P00740 47-191; P00740 227-461) (enzyme)”, in experiment [1], the kapp (second-order rate constant for inhibition) was determined as 89000 M⁻¹ s⁻¹.

“FIXa-Y155F/K247N/N249S/T343R/R403E (from UniProt P00740 47-191; P00740 227-461) (enzyme)” came in with a kapp (second-order rate constant for inhibition) in experiment [1] of 140000 M⁻¹ s⁻¹.

As for “FIXa-Y155F/N260S/R318Y/R338E/R403E/E410N (from UniProt P00740 47-191; P00740 227-461) (enzyme)”, the kapp (apparent second-order rate constant for inhibition) in experiment [2] is 2100 M⁻¹ s⁻¹.

In the case of “FIXa-Y155F/N260S/R318Y/R338E/T343R/R403E/E410N (from UniProt P00740 47-191; P00740 227-461) (enzyme)”, the kapp (second-order rate constant for inhibition) in experiment [1] came out at 2600 M⁻¹ s⁻¹.

Take “FIXa-Y155F/N260S/R338E/T343R/R403E (from UniProt P00740 47-191; P00740 227-461) (enzyme)”: in experiment [1], the kapp (second-order rate constant for inhibition) was found to be 40000 M⁻¹ s⁻¹.

As for “FIXa-Y155F/R318Y/R338E/N346D/R403E/E410N (from UniProt P00740 47-191; P00740 227-461) (enzyme)”, the kapp (apparent second-order rate constant for inhibition) in experiment [2] came out at 1600 M⁻¹ s⁻¹.

“FIXa-Y155F/R318Y/R338E/T343R/R403E/E410N (from UniProt P00740 47-191; P00740 227-461) (enzyme)”: the kapp (apparent second-order rate constant for inhibition) in experiment [2] was found to be 8600 M⁻¹ s⁻¹.
